Among the data in PMC12548092, “Exploring Helical Fraying Linked to Dynamics and Catalysis in Adenylate Kinase” (Biochemistry, 2025) are Km, kcat and kcat/Km values, retold here.

Substrate in the data set: Nc1ncnc2c1ncn2[C@@H]1O[C@H](COP(=O)(O)OP(=O)(O)OP(=O)(O)O)[C@@H](O)[C@H]1O
Put plainly: purified protein. To be noted: varied substrate not named in table (text: substrates ATP and AMP).

B1: AKeco (Escherichia coli K-12; K47A) (protein)
chain: MRIILLGAPGAGKGTQAQFIMEKYGIPQISTGDMLRAAVKSGSELGAQAKDIMDAGKLVTDELVIALVKERIAQEDCRNGFLLDGFPRTIPQADAMKEAGINVDYVLEFDVPDELIVDRIVGRRVHAPSGRVYHVKFNPPKVEGKDDVTGEELTTRKDDQEETVRKRLVEYHQMTAPLIGYYSKEAEAGNTKYAKVDGTKPVAEVRADLEKILG
For B1, the Km was 116 ± 8 µM, the kcat was 464 s⁻¹ and the kcat/Km came out at 4e+06 M⁻¹ s⁻¹.

Broadly, the Km is the substrate concentration at which the rate is half of its maximum. For orientation: kcat means the maximal rate divided by the concentration of active sites. The term kcat/Km denotes the turnover number divided by the Michaelis constant.
